Data set [1] deals with T1, CopY C101A (Streptococcus pneumoniae D39, UniProt A0A0H2ZLC1 1-131, C101A). The experiment in a line: fluorescence anisotropy; Zn1 CopY dimer; 40 uM ZnSO4; 0.23 M NaCl; FA: 10 mM HEPES pH 7.0, 0.23 M NaCl, 2 mM TCEP, 40 uM ZnSO4 or 2 mM EDTA, 25 C; EMSA: 10 nM DNA, 25 mM HEPES pH 7.0, 200 mM NaCl, 5 mM MgCl2, 50 ug/mL BSA (apo: 5 mM EDTA), 25 C. The following applies: protein: recombinant; tags: N-terminal His6-TEV, cleaved; three non-native N-terminal residues remain (printed GAM); chain copies: 2; label: 5' fluorescein on strand 1; blunt.

Data set [2] deals with T1, CopY C101A. As to the kind of experiment: EMSA; Zn1 CopY dimer; 5 mM MgCl2; 200 mM NaCl; FA: 10 mM HEPES pH 7.0, 0.23 M NaCl, 2 mM TCEP, 40 uM ZnSO4 or 2 mM EDTA, 25 C; EMSA: 10 nM DNA, 25 mM HEPES pH 7.0, 200 mM NaCl, 5 mM MgCl2, 50 ug/mL BSA (apo: 5 mM EDTA), 25 C. The following applies: protein: recombinant; tags: N-terminal His6-TEV, cleaved; three non-native N-terminal residues remain (printed GAM); chain copies: 2; label: 5' fluorescein on strand 1; blunt.

B1: 32-bp cop operator (single cop box) (dsDNA)
DNA 1: GTCTATAATTGACAAATGTAGATTTTAAGAGC
DNA 2: GCTCTTAAAATCTACATTTGTCAATTATAGAC
As for B1, the Ka in the data set with CopY C101A [1] was found to be 1e+07 M⁻¹; in the data set with CopY C101A [2] it was 2e+07 M⁻¹.

For the origin of these results see publication PMC5772342, “Metal-dependent allosteric activation and inhibition on the same molecular scaffold: the copper sensor CopY from Streptococcus pneumoniae† †Electronic supplementary information (ESI) available. See DO”.
